Test [1] addresses tubulin polymers from porcine brain tubulin fixed with glutaraldehyde (MTs (GA) or zinc-sheets (GA)) (porcine (purified from porcine brain)) (UniProt P02550).
Test [2] shares this target. This is another data set of the same source.
Test [3] deals with tubulin purified from porcine brain, polymerised without fixation (MTs, zinc-sheets or zinc-macrotubes) (porcine (purified from porcine brain)) (UniProt P02550).

Consider “rat kinesin dimer (RK430) fused with GFP (domain or fragment)”, for which the observed walking length on zinc-sheets (GA) (TIRF) in test [1] was 500 nm.

In test [2], “recombinant yeast dynein dimer GFP-GST-Dyn1_(331kDa) (domain or fragment)” showed a velocity of single-molecule movement on MTs (GA) (TIRF, from MSD plots; pH 6.8, 25 mM potassium acetate, 1 mM ATP) of 35 nm/s and a velocity of single-molecule movement on zinc-sheets (GA) (TIRF, from MSD plots; pH 6.8, 25 mM potassium acetate, 1 mM ATP) of 35 nm/s. The velocity of single-molecule movement on MTs (TIRF, from MSD plots; pH 6.8, 25 mM potassium acetate, 1 mM ATP) in test [3] was found to be 36 nm/s. In addition, the observed walking length on zinc-sheets (GA) (TIRF) in test [1] is 500 nm.
